Reference: the DeepSol protein solubility set

Assay: soluble on expression in E. coli; label from the status in PepcDB or PDB records

Sequence | soluble on expression in E. coli
MGSDKIHHHHHHMFELHPDSSTPLVNQIIDGLRELIDNQTLKPGAKVPSIRAFAASYSVSTFTVVEAYDRLVAQGLLVSRGNAGFFVNRAAGELLEQHNTEADTSRPTFNSEWYLQQIFEIRQLPYKPGCGWLPNDWMYEDGLRRGLRQVAGSPLELSGYGDPMGLMELRALTAQNLQQELSIVANPAQLMLTHGASQALDLAARTLVRPGDVVLVDDPGYPNLMSILRTQGATLVGVPRTPAGYDLNQLEQLLSHHRPTAFFTQPHLHSPTCSRTPLPQLHRLLQLASQHGFRLVENNLYADMVAEPQPCLASLDHLQQVVYVGSYSKSISPNVRVGYMLANPELMQKLLHLKMRSGLTTSQVMERVVYAAIIDGRWRKHLKRLRQRLAEAHQEVGRHLHRLGFELFTESDEGMYIWTRHPAIPDSAALLDDALEKGIMLGPGQLFMVDAKATGWMRFNVAFSTDPAMWELLEKVLVKHVRRSGM | not soluble
MSLRKVVILTLVTLFTCVEYSQAQTTEKEMTRQEKKAAQEALDKMLFQEAKEAIDNQTFVLEADRVYFKYGTSAFVSSNTNFVGLDGDKAVVQVAFNVPFSGPNGLGGITVDGNASNYKVKTDKKGNIHVSMNVMGIGISAQVNIDIPYGSNNATVDILPNFNSSHMTLSGQILPLKKANVFKGRSLEGHHHHHH | soluble
MLCFFDPGNFDIGDSVNDVEVKFNRAWTSVIGTKIDFAEKYSINIEGYYKYVFDRGYITADTSTGTITPSFNFDGVGKVWGFDIQLQKLESRYWDGWISYTYTWAKYNDPSGGNNGISNGSTNTINDSWYYPSFHRFHNFNLVLNIKPLLWFNIALRFGFASGQPRRRIDNKIYPYPVLIVNEDNEMVILQKYRRNSWYDENERTPWSFPLDIKFSFFPVNKNGRTSMEIYAAGENMMSLFYSPPGRTTFNQYTGKEDQGSSSGSFDLPIPMVSFGIKWRY | not soluble
GIRSLDGQEDEFDANEQEEIEAKRECALRGRVSVAITPAQSREHGQGDQHGGDRSTHTDDPQAGPWHSAAPAQLSDSIRTCIDAIVDRYVTRRDADPVAKRHALAAALVELRAVGVSHPAVAPLTATIWRLMREHLRAYDKATAAENLLALRTRLLELMPSELEPVPALRNFHLLLPLILLNAEKPRRRVDRTHAITRLNTLLIEQPQQAAQEVRP | not soluble
MTVVTTADTSQLYALAARHGLKLHGPLTVNELGLDYRIVIATVDDGRRWVLRIPRRAEVSAKVEPEARVLAMLKNRLPFAVPDWRVANAELVAYPMLEDSTAMVIQPGSSTPDWVVPQDSEVFAESFATALAALHAVPISAAVDAGMLIRTPTQARQKVADDVDRVRREFVVNDKRLHRWQRWLDDDSSWPDFSVVVHGDLYVGHVLIDNTERVSGMIDWSEARVDDPAIDMAAHLMVFGEEGLAKLLLTYEAAGGRVWPRLAHHIAERLAFGAVTYALFALDSGNEEYLAAAKAQLAAAE | not soluble
MGSDKIHHHHHHMHMLLSERISLMIRGGYVGRNPNTGKLQQHLQNGYERLQKGDLDAKRFDGAESTAHSMAIIGCSGSGKTTSLRRILNTYPQVIFHPTLNRHQIVYLKIDCSHDGSLKELCLNFFRAIDKVIGSNYEKKYGMKRHGVETMLALMAQTANMFALGLLVIDEIQHLSRAKSGGSEKMLNFFVTMSNTIGIPVLFVGTPKARDIFDLDLRSSRRAAGLGSIFWNPISQYLPDQKSQNPEWIAFTNTLWKLQYLQKRDPILSDEIRDTWFDLSQGILDIVVKLFILAQLRALATGAEKITVELLKRVYEDELKLVHPMLSALRSGIPERIAQFSDLAVPDMDKKIIHLIQKISASTVESEEDRALKQLSNDDQRRIYLMLKDEFPSDSIIFAIQKIVELKPQISRQQLLASIIQAMETDNTTSQVTVTKKKNQRIGLKQWNELEDTDLRHIFSMNSTSPESIYTQLNHHGLILQMSDLLS | not soluble
MGSDKIHHHHHHMDFELDDGWDVYPIYGNTNKAFMGKKNHQRLFLKRNASPFLAALSMEEITPRLIWTKRISSGDTLTAQEWLNGQTLTKQQMRLPEVAHLLARVHNSELLHRMLRKVGGQSVRPQDFIQQYLQDLPDDLRHHPLMARVLDELRGTAPTLPATDYRVCHGDLNHKNWLLSDRQQLYLVDWDSARFADPASDISMLLCEYVPLSDWQQWLSEYGETMTTALRTRVVWYAKINLLLNIKDNYYRNQYHQMNHEIIFLEELSQYEV | not soluble
